This data set can be described thus: soluble on expression in E. coli; label from the status in PepcDB or PDB records.
For the sequence “MFQIKKAAVLGSGVMGSGIAAHLANIGIPTLLLDIVPPALTKEEEAKGLTLEHKSVRNRFSNTAVQKLLKQKPAPLTVKGNLALIEAGNLEDDLERLADVDWIIEVVVENLDIKKKLFEKVDAVRKPGSIVSSNTSGISVEKMAEGRSDDFQKHFLGTHFFNPPRYLKLLEVIPTKKTDPQVLSFMKLFGEDVLGKGVVIAKDTPNFIGNRIGTYGLLVTLQEMVKRGYSIGEVDSVTGPLIGRPKSATFRTLDVVGLDTFVYVANNVYENVQEKERDVFKVPAFMHDMLDKKWLGSKTGQGFFLKQGKEILELNPETMEYEARKKLKAASIELSKQEKGLSNKLKALVYAKDRAGELLWNIITPTLLYSAKLHKEIADDIVAIDQAMKWGFGWEQGPFEVWDAIGVEKSVQKMEESGAVIPAWVKEMLEKGFTTFYKHDNGDSYYYDNGEYKLIECNKKAISLKQLKAKNGVLKKNSGASLIDLGDGILCLEFHSKSNAIGMDITQMINYAVDEVEKNYKGLVIGNQSKNFCVGANLAMILMEAQDDNYFEIEWVVKNFQDAMMKIKYSSKPVVAAPYGMTLGGGTEVCLPAASIQASSETYMGLVEVGVGLIPGGGGNKELYIKHLNKMANGVEFDLQKVANKVFETVAMAKVLTSGQEAVSHNFLGDKDGISVNGDHLLYDAKQKALALYEAGYKAPIRKKIPVVGETGYATLALGAEAMHLSGYISEYDLHIAKKLAYVIAGGKVPYGTEVDEQYLLDVEREAFISLVSEMKSQARMQHMLVKGKPLRN”, the “soluble on expression in E. coli” value was “not soluble”.
For the sequence “MGQRGQVCQGRCMAEDQQSSQISDTVPALRRAVRILDLVAGSPRDLTAAELTRILDLPKSSAHGLLAVMTELDLLARSADGTLRIGPHSLRWANGFLSHLDIVSTFNDHLAQRHDLDPYTVTLTVREGGEVVYIGCRNSAQPLGHTFRIGMRLPAPFTATGKILLSDLGPGELRMLFSQFPQPLTSRSVAGLSQLEEELALTRARGYSIDDGQIREGMLCIGAAIRDYSGAASAGIAISLIRSEASDEKIASLGEELRTTANALSEKLGYRSQKD”, the “soluble on expression in E. coli” value is “not soluble”.
On to “MLGSSSLSIRTTDDKSLFARTMDFTMEPDSKVIIVPRNYGIRLLEKENVVINNSYAFVGMGSTDITSPVLYDGVNEKGLMGAMLYYATFATYADEPKKGTRGINPVYVISQVLGNCVTVDDVIEKLTSYTLLNEANIILGFAPPLHYTFTDASGESIVIEPDKTGITIHRKTIGVMTNSPGYEWHQTNLRAYIGVTPNPPQDIMMGDLDLTPFGQGAGGLGLPGDFTPSARFLRVAYWKKYTEKAKNETEGVTNLFHILSSVNIPKGVVLTNEGKTDYTIYTSAMCAQSKNYYFKLYDNSRISAVSLMAENLNSQDLITFEWDRKQDIKQLNQVNVMS”, for which the “soluble on expression in E. coli” value was “soluble”.
The entry for “GMSPQSMLTSPQHPRRTTMVISHGTLSASAEHAAHLRQLLVHIAQATRQEDGCLLYLVSEDLSQPGHFLITEHWDNLGAMHTHLALPGVTQAIDALKHLNVTDLKITAYEAGEAINIMG” is “soluble”; for “MIPKQLSEAEAAVVLNLTVSQVRRLRHKGKLGYTPGRPPRIGEDDIEAYLRAVKRRPTLPPPTEPPTPVIEKDSYADIQRRVREKRLKLRLRSSQRSLG” it is “not soluble”.
Consider “MGSDKIHHHHHHMSIEAKFKKLGTDNAPGQEVRQSAAGLEALIRGAPIEGRPVDFSHGDVDAHEPTPGAFDLFSAGVQSGGVQAYTEYRGDLGIRDLLAPRLAAFTGAPVDARDGLIITPGTQGALFLAVAATVARGDKVAIVQPDYFANRKLVEFFEGEMVPVQLDYVSADETRAGLDLTGLEEAFKAGARVFLFSNPNNPAGVVYSAEEIGQIAALAARYGATVIADQLYSRLRYAGASYTHLRAEAAVDAENVVTIMGPSKTESLSGYRLGVAFGSRAIIARMEKLQAIVSLRAAGYSQAVLRGWFDEAPGWMEDRIARHQAIRDELLHVLRGCEGVFARTPQAGSYLFPRLPKLAVAPAEFVKILRLQAGVVVTPGTEFSPHTADSVRLNFSQDHEAAVAAARRIVTLVERYRA”, for which the “soluble on expression in E. coli” value was “not soluble”.
As for “MIVSSLRGGLGNQMFIYAMVKAMALRNNVPFAFNLTTDFANDEVYKRKLLLSYFALDLPENKKLTFDFSYGNYYRRLSRNLGCHILHPSYRYICEERPPHFESRLISSKITNAFLEGYWQSEKYFLDYKQEIKEDFVIQKKLEYTSYLELEEIKLLDKNAIMIGVRRYQESDVAPGGVLEDDYYKCAMDIMASKVTSPVFFCFSQDLEWVEKHLAGKYPVRLISKKEDDSGTIDDMFLMMHFRNYIISNSSFYWWGAWLSKYDDKLVIAPGNFINKDSVPESWFKLNVRMAGDPLEHHHHHH”, the “soluble on expression in E. coli” value is “not soluble”.

The values above are taken from the DeepSol protein solubility set.
